Experimental data published in paper PMC3032553, “Structural Basis for c-di-GMP-Mediated Inside-Out Signaling Controlling Periplasmic Proteolysis” (PLoS Biology, 2011).

Experiments:
[1] = target: the molecule itself; assay: AUC; sedimentation equilibrium, no c-di-GMP; 1x, 2x, 4x dilutions of ~12 µM protein; 25 mM Tris pH 7.5, 150 mM NaCl; 20°C; 10,000, 14,000 and 20,000 rpm, global fit; monomer:dimer equilibrium
[2] = target: the molecule itself; assay: AUC; sedimentation equilibrium with 20 µM c-di-GMP; 1x, 2x, 4x dilutions of ~12 µM protein; 25 mM Tris pH 7.5, 150 mM NaCl; 20°C; global fit with dinucleotide binding and dimerization of the c-di-GMP-bound form; monomer:dimer equilibrium
[3] = target: the molecule itself; assay: SEC-MALS; protein incubated with 500 µM c-di-GMP for 30 min at room temperature before SEC, no c-di-GMP in the mobile phase; 20-320 µM injected protein; 25 mM Tris-HCl pH 8.4, 250 mM NaCl; 25°C

Protein	Kd [1] [µM]	Kd [2] [nM]	binding result [3]
LapD^dual S229D (domain or fragment, P. fluorescens Pf0-1, UniProt Q3KK31 220-648, looked up, LapD, P. fluorescens Pf0-1, residues 220-648, mutation S229D in the S helix; also called S helix-EAL interface mutant; source: produced following standard molecular biology and liquid chromatography techniques, purified (protocols in Text S1)) ALFQEQAERDEKLRTESYQDNLTGLANRRYFEMQLNARVSNPEQASSGYLLLLRVKDLAGLNQRLGGQRTDELLKAVGEQLSRECAKYPETQNLVTRIRGGEFAVLAPGMTREEALQLAQSLDSALSSLYATGATDVAAVASIGLAPFAHGDSPQAVLSLGDQALAQAEGQGEQNWACLDQSLVADVGDDHHAWHRLLDQALNQRRFELFFQPVVAAQDTQLVLHYKVLSRLLDEQGQTIPAGRFLPWLERFGWTARLDRLMLERVLEQMAGHEESLALNLSSATLADPQALNKVFEILRAHSNLGARLTLEIGEEQLPEQAVLEQLTRRLRELGFSLSLQRFGGRFSMIGNLARLGLAYLKIDGSYIRAIDQESDKRLFIEAIQRAAHSIDLPLIAERVETEGELSVIREMGLYGVQGQLFGEPKPWG	420	180	
LapD^dual E262A (domain or fragment, P. fluorescens Pf0-1, UniProt Q3KK31 220-648, looked up, LapD, P. fluorescens Pf0-1, residues 220-648, mutation E262A in the GGDEF domain; also called GGDEF-EAL interface mutant; source: produced following standard molecular biology and liquid chromatography techniques, purified (protocols in Text S1)) ALFQEQAERSEKLRTESYQDNLTGLANRRYFEMQLNARVSNPAQASSGYLLLLRVKDLAGLNQRLGGQRTDELLKAVGEQLSRECAKYPETQNLVTRIRGGEFAVLAPGMTREEALQLAQSLDSALSSLYATGATDVAAVASIGLAPFAHGDSPQAVLSLGDQALAQAEGQGEQNWACLDQSLVADVGDDHHAWHRLLDQALNQRRFELFFQPVVAAQDTQLVLHYKVLSRLLDEQGQTIPAGRFLPWLERFGWTARLDRLMLERVLEQMAGHEESLALNLSSATLADPQALNKVFEILRAHSNLGARLTLEIGEEQLPEQAVLEQLTRRLRELGFSLSLQRFGGRFSMIGNLARLGLAYLKIDGSYIRAIDQESDKRLFIEAIQRAAHSIDLPLIAERVETEGELSVIREMGLYGVQGQLFGEPKPWG			binds
LapD^dual, wild-type (dual GGDEF-EAL domain module of LapD, residues 220-648) (domain or fragment, P. fluorescens Pf0-1, UniProt Q3KK31 220-648, looked up, LapD, P. fluorescens Pf0-1, residues 220-648 (S helix, degenerate GGDEF and EAL domains); also called apo-LapD^dual; intracellular module of LapD; source: produced following standard molecular biology and liquid chromatography techniques, purified (protocols in Text S1)) ALFQEQAERSEKLRTESYQDNLTGLANRRYFEMQLNARVSNPEQASSGYLLLLRVKDLAGLNQRLGGQRTDELLKAVGEQLSRECAKYPETQNLVTRIRGGEFAVLAPGMTREEALQLAQSLDSALSSLYATGATDVAAVASIGLAPFAHGDSPQAVLSLGDQALAQAEGQGEQNWACLDQSLVADVGDDHHAWHRLLDQALNQRRFELFFQPVVAAQDTQLVLHYKVLSRLLDEQGQTIPAGRFLPWLERFGWTARLDRLMLERVLEQMAGHEESLALNLSSATLADPQALNKVFEILRAHSNLGARLTLEIGEEQLPEQAVLEQLTRRLRELGFSLSLQRFGGRFSMIGNLARLGLAYLKIDGSYIRAIDQESDKRLFIEAIQRAAHSIDLPLIAERVETEGELSVIREMGLYGVQGQLFGEPKPWG	400	670	
